The supplement of paper PMC9112550, “Optimization of the antimicrobial peptide Bac7 by deep mutational scanning” (BMC Biology, 2022)

system: Escherichia coli TOP10; experiment: shrunken log2 fold change of peptide-encoding DNA abundance (4.5 h post-induction vs induction); higher = less antimicrobial activity (less host growth inhibition); details: time post-induction: 4.5 h; library: site-saturation at positions 5, 18, 19, 20
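Also: peptides expressed intracellularly from a pBAD plasmid library in pooled LB shake-flask culture, induced with 0.3% L-arabinose, DNA abundance read by NGS, three biological replicates, DESeq2 with apeglm shrinkage.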

Sequence | shrunken log2 fold change
RRIRIRPPRLPRPRPRPPYWPRP | -0.00803
RRIRVRPPRLPRPRPRPPGGPRP | 0.598
RRIRARPPRLPRPRPRPCMQPRP | -0.125
RRIRPRPPRLPRPRPRPQAFPRP | -0.00213
RRIRKRPPRLPRPRPRPIHCPRP | 0.0163
RRIRVRPPRLPRPRPRPCVRPRP | 0.0421
RRIRHRPPRLPRPRPRPRPTPRP | 0.759
RRIRNRPPRLPRPRPRPRCIPRP | -0.256
RRIRPRPPRLPRPRPRPAMEPRP | 0.226
RRIRDRPPRLPRPRPRPNLAPRP | -0.0121
RRIRMRPPRLPRPRPRPSVVPRP | 0.124
RRIRKRPPRLPRPRPRPVIDPRP | 1.29
RRIRMRPPRLPRPRPRPCVDPRP | 0.0636
RRIRRRPPRLPRPRPRPANPPRP | 0.364
RRIRCRPPRLPRPRPRPMAHPRP | -0.00655
RRIRERPPRLPRPRPRPDWAPRP | 0.0306
RRIRGRPPRLPRPRPRPKLWPRP | 0.896
RRIRQRPPRLPRPRPRPFNAPRP | -0.233
RRIRQRPPRLPRPRPRPCQAPRP | -0.187
RRIRARPPRLPRPRPRPMCEPRP | 0.797
RRIRNRPPRLPRPRPRPRGPPRP | 0.893
RRIRARPPRLPRPRPRPAGSPRP | 0.0823

Sequence | shrunken log2 fold change
RRIRGRPPRLPRPRPRPTECPRP | 0.267
RRIRPRPPRLPRPRPRPYMPPRP | -0.854
RRIRLRPPRLPRPRPRPNVMPRP | -0.0669
RRIRWRPPRLPRPRPRPAKMPRP | 0.519
RRIRFRPPRLPRPRPRPYDLPRP | -1.02
RRIRARPPRLPRPRPRPADLPRP | 0.729
RRIRWRPPRLPRPRPRPANYPRP | -0.0848
RRIRHRPPRLPRPRPRPFVDPRP | 0.268
RRIRLRPPRLPRPRPRPEQEPRP | -0.104
RRIRGRPPRLPRPRPRPSLFPRP | 0.442
RRIRARPPRLPRPRPRPWVWPRP | 0.596
RRIRHRPPRLPRPRPRPRGLPRP | 0.369
RRIRCRPPRLPRPRPRPMKMPRP | -0.0497
RRIRQRPPRLPRPRPRPCQEPRP | -0.015
RRIRHRPPRLPRPRPRPEGSPRP | -0.0192
RRIRDRPPRLPRPRPRPEWIPRP | 0.0504
RRIRHRPPRLPRPRPRPDNPPRP | -0.0868
RRIRCRPPRLPRPRPRPDQKPRP | 0.0192
RRIRSRPPRLPRPRPRPDLMPRP | -0.0144
RRIRVRPPRLPRPRPRPGVGPRP | 0.275
RRIRIRPPRLPRPRPRPGCPPRP | -0.304
RRIRDRPPRLPRPRPRPAKFPRP | 0.0399

Sequence | shrunken log2 fold change
RRIRRRPPRLPRPRPRPTECPRP | 0.0801
RRIRHRPPRLPRPRPRPDMNPRP | -0.178
RRIRTRPPRLPRPRPRPKNDPRP | -0.362
RRIRLRPPRLPRPRPRPICAPRP | 0.0264
RRIRYRPPRLPRPRPRPMKAPRP | -0.000687
RRIRKRPPRLPRPRPRPTQGPRP | 0.909
RRIRDRPPRLPRPRPRPHSCPRP | -0.00804
RRIRHRPPRLPRPRPRPVIRPRP | 0.00766
RRIRKRPPRLPRPRPRPIQYPRP | -0.193
RRIRQRPPRLPRPRPRPATIPRP | -0.123
RRIRYRPPRLPRPRPRPKDHPRP | -0.487
RRIRFRPPRLPRPRPRPGGAPRP | 0.263
RRIRHRPPRLPRPRPRPSGLPRP | 0.0123
RRIRYRPPRLPRPRPRPTVEPRP | 0.0629
RRIRNRPPRLPRPRPRPQWWPRP | 0.034
RRIRARPPRLPRPRPRPNKNPRP | 0.0222
RRIRKRPPRLPRPRPRPLFKPRP | 0.11
RRIRLRPPRLPRPRPRPEFHPRP | -0.113
RRIRNRPPRLPRPRPRPKYTPRP | -0.63
RRIRIRPPRLPRPRPRPAWKPRP | 0.123
RRIRFRPPRLPRPRPRPHPEPRP | -0.00858
RRIRTRPPRLPRPRPRPDAIPRP | -0.141

Sequence | shrunken log2 fold change
RRIRIRPPRLPRPRPRPMPRPRP | 0.0826
RRIRPRPPRLPRPRPRPCPDPRP | 0.0391
RRIRWRPPRLPRPRPRPGSDPRP | 0.661
RRIRFRPPRLPRPRPRPESRPRP | 0.146
RRIRHRPPRLPRPRPRPMMCPRP | -0.0874
RRIRFRPPRLPRPRPRPWRIPRP | -0.0447
RRIRPRPPRLPRPRPRPKLNPRP | 0.0891
RRIRLRPPRLPRPRPRPPTNPRP | 0.177
RRIRHRPPRLPRPRPRPPALPRP | -0.00181
RRIRNRPPRLPRPRPRPREIPRP | 0.0831
RRIRKRPPRLPRPRPRPTNFPRP | 0.111
RRIRLRPPRLPRPRPRPEAQPRP | 0.375
RRIRLRPPRLPRPRPRPMQMPRP | -0.11
RRIRSRPPRLPRPRPRPDAGPRP | 0.569
RRIRARPPRLPRPRPRPWNGPRP | 0.0566
RRIRHRPPRLPRPRPRPCHEPRP | -0.0201
RRIRGRPPRLPRPRPRPYEWPRP | -0.027
RRIRHRPPRLPRPRPRPTICPRP | -0.41
RRIRKRPPRLPRPRPRPENQPRP | 0.156
RRIRARPPRLPRPRPRPVFTPRP | -0.0343
RRIRYRPPRLPRPRPRPIYHPRP | -0.85
RRIRERPPRLPRPRPRPRLSPRP | 0.134

Sequence | shrunken log2 fold change
RRIRTRPPRLPRPRPRPEGCPRP | 0.214
RRIRMRPPRLPRPRPRPMYNPRP | -0.815
RRIRERPPRLPRPRPRPGDLPRP | -0.0898
RRIRERPPRLPRPRPRPRMGPRP | -0.173
RRIRTRPPRLPRPRPRPDWCPRP | -0.0271
RRIRARPPRLPRPRPRPDKCPRP | -0.0816
RRIRYRPPRLPRPRPRPRTLPRP | -0.537
RRIRKRPPRLPRPRPRPYSEPRP | -0.269
RRIRPRPPRLPRPRPRPQLPPRP | 0.0534
RRIRQRPPRLPRPRPRPYIHPRP | -0.912
RRIRVRPPRLPRPRPRPQRKPRP | 0.0451
RRIRERPPRLPRPRPRPDGRPRP | -0.03
RRIRGRPPRLPRPRPRPIACPRP | 0.526
RRIRKRPPRLPRPRPRPPFCPRP | -0.0397
RRIRVRPPRLPRPRPRPAVYPRP | -0.161
RRIRFRPPRLPRPRPRPYNCPRP | -0.768
RRIRSRPPRLPRPRPRPKQEPRP | 0.286
RRIRVRPPRLPRPRPRPEFHPRP | -0.489
RRIRQRPPRLPRPRPRPGNTPRP | 0.0649
RRIRRRPPRLPRPRPRPCPDPRP | -0.0762
RRIRFRPPRLPRPRPRPIGCPRP | -0.111
